Test results as given in US20110229458A1 (published 2011).

Legend:
human GLP-1 receptor [1] = molecular target: T1, human GLP-1 receptor (human, UniProt P43220 24-463); test: cell-based or functional assay
human GLP-1 receptor [2] = molecular target: T1, human GLP-1 receptor; test: cell-based or functional assay; remark: listed apart in the source

T1 sequence (P43220 24-463): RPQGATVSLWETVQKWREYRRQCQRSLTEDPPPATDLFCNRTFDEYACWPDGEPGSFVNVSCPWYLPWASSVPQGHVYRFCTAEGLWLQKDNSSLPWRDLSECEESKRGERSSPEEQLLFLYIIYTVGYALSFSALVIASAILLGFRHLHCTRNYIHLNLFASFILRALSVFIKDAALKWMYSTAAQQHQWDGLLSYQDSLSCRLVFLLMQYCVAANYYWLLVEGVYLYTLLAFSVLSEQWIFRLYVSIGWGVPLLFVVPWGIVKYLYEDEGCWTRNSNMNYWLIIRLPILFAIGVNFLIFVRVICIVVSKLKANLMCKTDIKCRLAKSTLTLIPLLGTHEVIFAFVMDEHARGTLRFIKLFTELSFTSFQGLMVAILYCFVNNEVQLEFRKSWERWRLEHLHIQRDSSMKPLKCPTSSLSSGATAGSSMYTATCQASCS

Row | pEC50 (6CRE luciferase reporter, CHO 6CRE GLP1R cells) (human GLP-1 receptor [1]) | EC50 (M) (luciferase reporter, CHO 6CRE GLP1R cells); preparation DMS7161 A (human GLP-1 receptor [2]) | EC50 (M) (luciferase reporter, CHO 6CRE GLP1R cells); preparation DMS7161 B (human GLP-1 receptor [2]) | pEC50 (luciferase reporter, CHO 6CRE GLP1R cells); preparation DMS7161 A (human GLP-1 receptor [2]) | pEC50 (luciferase reporter, CHO 6CRE GLP1R cells); preparation DMS7161 B (human GLP-1 receptor [2]) | Binder
1 | 9.45 |  |  |  |  | DMS7148 (other) HGEGTFTSDVSSYLEGQAAKEFIADLVEGRGPSSDIQMTQSPSSLSASVGDRVTITCRASQWIGSQLSWYQQKPGKAPKLLIMWRSSLQSGVPSRFSGSGSGTDFTLTISSLQPEDFATYYCAQGAALPRTFGQGTKVEIKR
2 |  | 3.4e-09 M | 1.6e-09 M | 8.47 | 8.79 | DMS7161 (other) HGEGTFTSDVSSYLEGQAAKEFIADLVEGRGPSSDIQMTQSPSSLSASVGDRVTITCRASQWIGSQLSWYQQKPGKAPKLLIMWRSSLQSGVPSRFSGSGSGTDFTLTISSLQPEDFATYYCAQGLRHPKTFGQGTKVEIKR
